{"source": "paper PMC3085179", "origin": "cited, not measured here", "target": "intermediate affinity IL-2 receptor (Homo sapiens) (UniProt P14784)", "sequence (P14784 27-240, chain 1 of 2)": "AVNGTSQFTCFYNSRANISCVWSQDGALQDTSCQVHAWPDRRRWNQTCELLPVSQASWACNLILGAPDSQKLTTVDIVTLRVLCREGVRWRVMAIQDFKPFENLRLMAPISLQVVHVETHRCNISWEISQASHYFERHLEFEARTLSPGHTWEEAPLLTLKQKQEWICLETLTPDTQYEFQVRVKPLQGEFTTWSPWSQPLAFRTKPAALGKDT", "sequence (P31785 23-262, chain 2 of 2, further chain)": "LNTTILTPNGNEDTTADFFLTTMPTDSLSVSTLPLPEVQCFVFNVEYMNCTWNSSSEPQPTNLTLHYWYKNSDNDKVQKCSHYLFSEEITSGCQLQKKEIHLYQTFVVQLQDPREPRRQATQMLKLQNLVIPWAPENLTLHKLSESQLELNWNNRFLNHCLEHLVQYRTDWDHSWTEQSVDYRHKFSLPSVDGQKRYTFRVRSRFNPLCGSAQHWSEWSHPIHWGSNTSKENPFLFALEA", "note": "pKd: −log10 of the molar value.", "data": [{"substance": "IL-2 (from UniProt P60568)", "values": [{"measurement": "pKd", "result": 9.00}]}]}
